The supplement of paper PMC7877785
± gives the uncertainty stated by the source.

Test: self-splicing fitness, log relative to wild type (ln ratio); higher = more splicing; Tetrahymena group I intron in knt gene, E. coli kanamycin selection, DiMSum; sequences stand for … in CUCUCU…GGAGGGAAAAGUUAUCAGGCAUGCACCUGGUAGCUAGUCUUUAAACCAAUAGAUUGCAUCGGUUUAAAAGGCAAGACCGUCAAAUUGCGGGAAAGGGGUCAACAGCCGUUCAGUACCAAGUCUCAGGGGAAACUUUGAGAUGGCCUUGCAAAGGGUAUGGUAAUAAGCUGACGGACAUGGUCCUAACCACGCAGCCAAGUCCUAAGUCAACAGAUCUUCUGUUGAUAUGGAUGCAGUUCACAGACUAAAUGUCGGUCGGGGAAGAUGUAUUCUUCUCAUAAGAUAUAGUCGGACCUCUCCUUAAUGGGAGCUAGCGGAUGAAGUGAUGCAACACUGGAGCCGCUGGGAACUAAUUUGUAUGCGAAAGUAUAUUGAUUAGUUUUGGAGUACUCGUGGUCG
In short: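 A randomised library covering all eight P1ex-region intron nucleotides was built with the intron in the knt kanamycin-resistance gene on pET-22b(+) and held in E. coli BL21(DE3). Cells were grown overnight at 37°C or 30°C on LB agar, with or without 25 μg/mL kanamycin, plus 100 μg/mL carbenicillin, 50 μM IPTG and 0.2% rhamnose, and pooled colonies were amplicon-sequenced on an Illumina HiSeq 2500. DiMSum fitness is the error-weighted combination of wild-type-normalised replicate fold changes, kanamycin versus none.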

| Sequence | self-splicing fitness (ln) (30 °C) | self-splicing fitness (ln) (37 °C) |
| --- | --- | --- |
| AUAGAGCAAUAUUACGUACC | -3.3 ± 0.16 | -1.3 ± 0.15 |
| AUAGAGCAAUAUUACGUCAG | -3.64 ± 0.28 | -2.66 ± 0.23 |
| AUAGAGCAAUAUUACGUCCA | -2.35 ± 0.21 | -0.672 ± 0.2 |
| AUAGAGCAAUAUUACGUCGG | -3.26 ± 0.14 | -2.27 ± 0.17 |
| AUAUAGCAAUAUUACGAAAU | -1.01 ± 0.21 | -1.72 ± 0.28 |
| AUAUAGCAAUAUUACGAACA | -0.789 ± 0.2 | -0.183 ± 0.21 |
| AUAUAGCAAUAUUACGAAUU | -2.52 ± 0.16 | -0.909 ± 0.14 |
| AUAUAGCAAUAUUACGACCC | -1.24 ± 0.28 | – |
| AUAUAGCAAUAUUACGACUU | 0.217 ± 0.073 | -0.272 ± 0.075 |
| AUAUAGCAAUAUUACGAUAC | -1.66 ± 0.35 | -0.756 ± 0.26 |
| AUAUAGCAAUAUUACGAUGA | -0.834 ± 0.16 | -0.885 ± 0.17 |
| AUAUAGCAAUAUUACGCAUU | -3.04 ± 0.18 | -1.42 ± 0.15 |
| AUAUAGCAAUAUUACGCCAU | -1.32 ± 0.18 | -1.38 ± 0.21 |
| AUAUAGCAAUAUUACGCCGA | -2.85 ± 0.48 | -1.13 ± 0.35 |
| AUAUAGCAAUAUUACGGACC | -0.93 ± 0.22 | -0.283 ± 0.24 |
| AUAUAGCAAUAUUACGGCAC | -2 ± 0.24 | 0.951 ± 0.25 |
| AUAUAGCAAUAUUACGGCCA | -1.28 ± 0.22 | -0.185 ± 0.26 |
| AUAUAGCAAUAUUACGGCGG | -1.04 ± 0.17 | -0.534 ± 0.26 |
| AUAUAGCAAUAUUACGGUAG | -3.13 ± 0.18 | -1.74 ± 0.21 |
| AUAUAGCAAUAUUACGUAGC | -4.04 ± 0.39 | -2.54 ± 0.33 |
| AUAUAGCAAUAUUACGUCCA | -1.87 ± 0.34 | -0.0483 ± 0.29 |
| AUAUAGCAAUAUUACGUCGU | -1.12 ± 0.12 | -0.541 ± 0.18 |
| AUAUAGCAAUAUUACGUGAU | -1.4 ± 0.092 | -0.895 ± 0.14 |
| AUAUAGCAAUAUUACGUGCG | -0.942 ± 0.094 | -0.942 ± 0.13 |
| AUCAAGCAAUAUUACGAACC | -1.05 ± 0.18 | -0.734 ± 0.25 |

| Sequence | self-splicing fitness (ln) (30 °C) | self-splicing fitness (ln) (37 °C) |
| --- | --- | --- |
| AUCAAGCAAUAUUACGACGC | -0.837 ± 0.099 | -0.402 ± 0.12 |
| AUCAAGCAAUAUUACGACUA | -0.634 ± 0.076 | 0.132 ± 0.088 |
| AUCAAGCAAUAUUACGAGUG | -2.19 ± 0.1 | -1.28 ± 0.14 |
| AUCAAGCAAUAUUACGCAAG | -1.99 ± 0.15 | -0.935 ± 0.15 |
| AUCAAGCAAUAUUACGCCGA | -1.02 ± 0.14 | -0.375 ± 0.17 |
| AUCAAGCAAUAUUACGCGAG | -1.3 ± 0.081 | -0.224 ± 0.086 |
| AUCAAGCAAUAUUACGCUGG | -2.36 ± 0.096 | -0.84 ± 0.12 |
| AUCAAGCAAUAUUACGGGCA | -1.42 ± 0.098 | -0.95 ± 0.098 |
| AUCAAGCAAUAUUACGGUAC | -3.8 ± 0.23 | -0.246 ± 0.12 |
| AUCAAGCAAUAUUACGGUCC | -1.55 ± 0.13 | -1.75 ± 0.17 |
| AUCAAGCAAUAUUACGGUGU | -1.7 ± 0.076 | -1.11 ± 0.088 |
| AUCAAGCAAUAUUACGUAAA | -2.59 ± 0.13 | -1.11 ± 0.12 |
| AUCAAGCAAUAUUACGUCCA | -1.23 ± 0.09 | -0.319 ± 0.11 |
| AUCAAGCAAUAUUACGUCGG | -3.01 ± 0.13 | -1.29 ± 0.12 |
| AUCAAGCAAUAUUACGUGAU | -3.81 ± 0.2 | -2.23 ± 0.17 |
| AUCAAGCAAUAUUACGUGGG | -3.29 ± 0.14 | -2.04 ± 0.11 |
| AUCAAGCAAUAUUACGUGUG | -1.57 ± 0.069 | -1.32 ± 0.071 |
| AUCAAGCAAUAUUACGUUAA | -3.14 ± 0.11 | -1.87 ± 0.093 |
| AUCAAGCAAUAUUACGUUAC | -5.49 ± 0.45 | -2.82 ± 0.27 |
| AUCAAGCAAUAUUACGUUCA | -1.91 ± 0.11 | -0.446 ± 0.13 |
| AUCAAGCAAUAUUACGUUUC | – | -1.52 ± 0.34 |
| AUCCAGCAAUAUUACGAAAA | -1.79 ± 0.12 | -1.02 ± 0.12 |
| AUCCAGCAAUAUUACGAGUU | -1.33 ± 0.063 | -0.782 ± 0.077 |
| AUCCAGCAAUAUUACGAUGU | -0.743 ± 0.066 | 0.613 ± 0.093 |
| AUCCAGCAAUAUUACGCAAC | -2.21 ± 0.13 | -0.741 ± 0.12 |

| Sequence | self-splicing fitness (ln) (30 °C) | self-splicing fitness (ln) (37 °C) |
| --- | --- | --- |
| AUCCAGCAAUAUUACGCACG | -1.68 ± 0.12 | -0.334 ± 0.13 |
| AUCCAGCAAUAUUACGCCGU | -0.864 ± 0.096 | -0.133 ± 0.12 |
| AUCCAGCAAUAUUACGCCUU | -0.818 ± 0.067 | -0.214 ± 0.082 |
| AUCCAGCAAUAUUACGCGAU | -1.86 ± 0.15 | -2.42 ± 0.25 |
| AUCCAGCAAUAUUACGCUAU | -1.51 ± 0.09 | -1.26 ± 0.1 |
| AUCCAGCAAUAUUACGGCCC | -0.946 ± 0.2 | 0.127 ± 0.21 |
| AUCCAGCAAUAUUACGGCUG | -3.69 ± 0.39 | -2.43 ± 0.27 |
| AUCCAGCAAUAUUACGGGUC | -3.06 ± 0.12 | -1.62 ± 0.13 |
| AUCCAGCAAUAUUACGGUGA | -1.55 ± 0.096 | -1.17 ± 0.11 |
| AUCCAGCAAUAUUACGGUUG | -2.95 ± 0.1 | -1.03 ± 0.087 |
| AUCCAGCAAUAUUACGUAAU | -0.922 ± 0.072 | -0.492 ± 0.079 |
| AUCCAGCAAUAUUACGUAUC | -3.8 ± 0.27 | -2.26 ± 0.2 |
| AUCCAGCAAUAUUACGUCAC | -2.35 ± 0.19 | -2.44 ± 0.22 |
| AUCCAGCAAUAUUACGUCCU | -1.47 ± 0.11 | -0.253 ± 0.14 |
| AUCCAGCAAUAUUACGUCUC | -1.84 ± 0.12 | -0.869 ± 0.11 |
| AUCCAGCAAUAUUACGUGUA | -1.71 ± 0.06 | -0.487 ± 0.059 |
| AUCCAGCAAUAUUACGUUCG | -2.47 ± 0.1 | -0.92 ± 0.12 |
| AUCGAGCAAUAUUACGACCG | – | -1.63 ± 0.36 |
| AUCGAGCAAUAUUACGAGCA | -1.2 ± 0.12 | -0.963 ± 0.14 |
| AUCGAGCAAUAUUACGAUAA | -2.7 ± 0.26 | -1.74 ± 0.21 |
| AUCGAGCAAUAUUACGAUAU | -2.14 ± 0.17 | -0.583 ± 0.14 |
| AUCGAGCAAUAUUACGAUUA | -2.47 ± 0.23 | 0.0165 ± 0.12 |
| AUCGAGCAAUAUUACGCAAU | -2.08 ± 0.21 | -2.75 ± 0.4 |
| AUCGAGCAAUAUUACGCAUC | -2.77 ± 0.48 | – |
| AUCGAGCAAUAUUACGCAUU | -1.6 ± 0.24 | -3.11 ± 0.3 |

| Sequence | self-splicing fitness (ln) (30 °C) | self-splicing fitness (ln) (37 °C) |
| --- | --- | --- |
| AUCGAGCAAUAUUACGCGCA | -1.59 ± 0.17 | -0.0318 ± 0.17 |
| AUCGAGCAAUAUUACGCGUA | -1.93 ± 0.17 | -1.01 ± 0.14 |
| AUCGAGCAAUAUUACGCUCA | -1.09 ± 0.26 | -0.721 ± 0.4 |
| AUCGAGCAAUAUUACGCUUU | -2.98 ± 0.15 | -2.29 ± 0.18 |
| AUCGAGCAAUAUUACGGAUA | -3.67 ± 0.33 | -1.92 ± 0.25 |
| AUCGAGCAAUAUUACGGCAG | – | -2.63 ± 0.46 |
| AUCGAGCAAUAUUACGGCAU | -0.455 ± 0.098 | -0.101 ± 0.1 |
| AUCGAGCAAUAUUACGGCUC | -1.39 ± 0.36 | -1.56 ± 0.49 |
| AUCGAGCAAUAUUACGGGCG | -2.97 ± 0.16 | -2.37 ± 0.19 |
| AUCGAGCAAUAUUACGGGCU | -4.05 ± 0.23 | -2.94 ± 0.26 |
| AUCGAGCAAUAUUACGGGGU | -3.4 ± 0.21 | -2.52 ± 0.19 |
| AUCGAGCAAUAUUACGUCGG | -2 ± 0.13 | -1.42 ± 0.16 |
| AUCGAGCAAUAUUACGUCGU | -2.19 ± 0.13 | -1.2 ± 0.14 |
| AUCGAGCAAUAUUACGUGCU | -2.72 ± 0.2 | -2 ± 0.27 |
| AUCGAGCAAUAUUACGUGUG | -3.04 ± 0.13 | -2.92 ± 0.18 |
| AUCGAGCAAUAUUACGUUUC | – | -2.81 ± 0.31 |
| AUCUAGCAAUAUUACGAAAA | – | -2.38 ± 0.33 |
| AUCUAGCAAUAUUACGAAAC | – | -1.96 ± 0.49 |
| AUCUAGCAAUAUUACGACAU | 0.0957 ± 0.013 | 0.273 ± 0.032 |
| AUCUAGCAAUAUUACGAUAC | -3.21 ± 0.35 | -2.27 ± 0.29 |
| AUCUAGCAAUAUUACGAUCU | -1.03 ± 0.13 | 0.148 ± 0.15 |
| AUCUAGCAAUAUUACGCAGG | -2.97 ± 0.3 | -1.07 ± 0.18 |
